Test results as given in IntAct's records for PubMed 31552791.

B1: Ras-related protein Rab-38 (Homo sapiens), P57729 (parent)
chain: MQAPHKEHLYKLLVIGDLGVGKTSIIKRYVHQNFSSHYRATIGVDFALKVLHWDPETVVRLQLWDIAGQERFGNMTRVYYREAMGAFIVFDVTRPATFEAVAKWKNDLDSKLSLPNGKPVSVVLLANKCDQGKDVLMNNGLKMDQFCKEHGFVGWFETSAKENINIDEASRCLVKHILANECDLMESIEPDVVKPHLTSTKVASCSGCAKS

Variants of: B1
Conditions: with lrrk2_human LRRK2, Q5S007
Sequence of lrrk2_human LRRK2, Q5S007 (Q5S007 whole entry): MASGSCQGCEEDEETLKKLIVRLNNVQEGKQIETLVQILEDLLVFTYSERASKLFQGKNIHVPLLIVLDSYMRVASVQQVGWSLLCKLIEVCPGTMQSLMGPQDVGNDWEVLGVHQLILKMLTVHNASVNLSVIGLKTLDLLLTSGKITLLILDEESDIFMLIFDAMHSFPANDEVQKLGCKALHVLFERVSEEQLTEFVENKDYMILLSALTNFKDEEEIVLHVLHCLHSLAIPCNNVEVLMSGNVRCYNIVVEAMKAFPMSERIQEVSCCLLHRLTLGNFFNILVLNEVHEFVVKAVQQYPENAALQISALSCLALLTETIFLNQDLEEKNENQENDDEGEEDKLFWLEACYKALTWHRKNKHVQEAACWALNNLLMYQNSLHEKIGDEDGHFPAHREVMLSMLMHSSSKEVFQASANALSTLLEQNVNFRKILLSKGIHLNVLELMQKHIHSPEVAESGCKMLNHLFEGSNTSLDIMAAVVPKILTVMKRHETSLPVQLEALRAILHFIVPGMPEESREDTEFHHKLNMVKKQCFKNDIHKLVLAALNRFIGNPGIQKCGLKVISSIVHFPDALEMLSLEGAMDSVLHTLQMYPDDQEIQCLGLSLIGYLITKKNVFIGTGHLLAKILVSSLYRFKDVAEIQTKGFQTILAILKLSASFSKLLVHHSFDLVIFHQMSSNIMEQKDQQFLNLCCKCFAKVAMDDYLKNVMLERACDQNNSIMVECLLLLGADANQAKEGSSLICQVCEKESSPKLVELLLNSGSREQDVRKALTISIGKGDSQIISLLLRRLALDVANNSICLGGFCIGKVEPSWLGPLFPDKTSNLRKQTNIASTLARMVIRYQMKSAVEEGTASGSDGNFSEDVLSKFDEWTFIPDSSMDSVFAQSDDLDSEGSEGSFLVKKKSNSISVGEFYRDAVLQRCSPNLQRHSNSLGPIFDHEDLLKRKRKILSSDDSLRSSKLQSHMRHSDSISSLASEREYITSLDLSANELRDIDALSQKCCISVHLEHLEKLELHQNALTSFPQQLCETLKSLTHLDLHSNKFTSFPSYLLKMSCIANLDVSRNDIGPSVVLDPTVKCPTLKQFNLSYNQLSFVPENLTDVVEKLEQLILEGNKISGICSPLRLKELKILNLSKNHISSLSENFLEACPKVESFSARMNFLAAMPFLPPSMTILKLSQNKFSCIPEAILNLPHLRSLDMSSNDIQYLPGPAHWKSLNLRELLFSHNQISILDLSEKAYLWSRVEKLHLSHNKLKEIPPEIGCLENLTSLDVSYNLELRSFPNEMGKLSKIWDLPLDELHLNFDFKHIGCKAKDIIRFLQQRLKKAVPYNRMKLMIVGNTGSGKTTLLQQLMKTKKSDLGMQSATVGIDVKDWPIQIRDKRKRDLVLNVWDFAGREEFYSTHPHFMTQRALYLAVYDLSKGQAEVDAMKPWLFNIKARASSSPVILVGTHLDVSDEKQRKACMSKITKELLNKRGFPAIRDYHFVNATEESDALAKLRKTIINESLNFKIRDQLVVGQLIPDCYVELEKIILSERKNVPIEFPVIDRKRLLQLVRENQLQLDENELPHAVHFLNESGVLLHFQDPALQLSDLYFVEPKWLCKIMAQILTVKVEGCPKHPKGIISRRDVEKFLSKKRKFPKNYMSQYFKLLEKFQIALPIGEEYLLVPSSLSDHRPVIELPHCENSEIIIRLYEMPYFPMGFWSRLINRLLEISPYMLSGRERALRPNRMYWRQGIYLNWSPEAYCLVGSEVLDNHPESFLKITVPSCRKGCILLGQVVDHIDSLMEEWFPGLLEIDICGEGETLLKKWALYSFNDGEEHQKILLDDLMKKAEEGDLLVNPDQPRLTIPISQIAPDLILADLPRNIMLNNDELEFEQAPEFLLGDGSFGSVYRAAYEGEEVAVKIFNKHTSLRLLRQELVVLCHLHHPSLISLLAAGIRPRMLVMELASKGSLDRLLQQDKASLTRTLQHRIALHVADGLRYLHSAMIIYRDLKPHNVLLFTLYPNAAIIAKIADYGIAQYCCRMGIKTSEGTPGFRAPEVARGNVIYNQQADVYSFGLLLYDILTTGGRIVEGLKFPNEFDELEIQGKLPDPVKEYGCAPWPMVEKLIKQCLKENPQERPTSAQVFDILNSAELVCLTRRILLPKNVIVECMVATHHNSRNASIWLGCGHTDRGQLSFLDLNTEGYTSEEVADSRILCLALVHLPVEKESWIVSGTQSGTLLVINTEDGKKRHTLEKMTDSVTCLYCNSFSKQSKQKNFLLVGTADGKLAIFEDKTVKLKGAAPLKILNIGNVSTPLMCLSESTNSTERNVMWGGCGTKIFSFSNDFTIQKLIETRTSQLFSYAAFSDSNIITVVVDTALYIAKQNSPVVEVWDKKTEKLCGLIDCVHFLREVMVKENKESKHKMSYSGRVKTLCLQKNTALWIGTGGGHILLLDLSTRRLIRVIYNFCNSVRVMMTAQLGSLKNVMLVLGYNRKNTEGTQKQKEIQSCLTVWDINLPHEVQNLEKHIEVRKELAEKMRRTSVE

| effect of a mutation on the interaction | Variant |
| --- | --- |
| with no effect | MQAPHKEHLYKLLVIGDLGVGKTSIIKRYVHQNFSSHYRATIGVDFALKVLHWDPETVVRLQLWDIAGQERFGNMTQVYYQEAMGAFIVFDVTRPATFEAVAKWKNDLDSKLSLPNGKPVSVVLLANKCDQGKDVLMNNGLKMDQFCKEHGFVGWFETSAKENINIDEASRCLVKHILANECDLMESIEPDVVKPHLTSTKVASCSGCAKS [R77Q;R81Q] |
| with no effect | MQAPHKEHLYKLLVIGDLGVGKTSIIKRYVHQNFSSHYRATEGVDFALKVLHWDPETVVRLQLWDIAGQERFGNMTRVYYREAMGAFIVFDVTRPATFEAVAKWKNDLDSKLSLPNGKPVSVVLLANKCDQGKDVLMNNGLKMDQFCKEHGFVGWFETSAKENINIDEASRCLVKHILANECDLMESIEPDVVKPHLTSTKVASCSGCAKS [I42E] |
| with no effect | MQAPHKEHLYKLLVIGDLGVGKTSIIKRYVHQNFSSHYRATAGVDFALKVLHWDPETVVRLQLWDIAGQERFGNMTRVYYREAMGAFIVFDVTRPATFEAVAKWKNDLDSKLSLPNGKPVSVVLLANKCDQGKDVLMNNGLKMDQFCKEHGFVGWFETSAKENINIDEASRCLVKHILANECDLMESIEPDVVKPHLTSTKVASCSGCAKS [I42A] |
| decreasing interaction strength | MQAPHKEHLYKLLVIGDLGVGKTSIIKRYVHQNFSSHYQATIGVDFALKVLHWDPETVVRLQLWDIAGQERFGNMTRVYYREAMGAFIVFDVTRPATFEAVAKWKNDLDSKLSLPNGKPVSVVLLANKCDQGKDVLMNNGLKMDQFCKEHGFVGWFETSAKENINIDEASRCLVKHILANECDLMESIEPDVVKPHLTSTKVASCSGCAKS [R39Q] |
